1 substance from ChEMBL document CHEMBL1137932, “Synthesis of S-alkyl L-homocysteine analogues of glutathione and their kinetic studies with gamma-glutamyl transpeptidase” (Bioorg Med Chem Lett, 2004) can be followed below.

The subject of series [1] is NC(CC[S+]([O-])CCC(=O)NCC(=O)O)C(=O)O. In words: (§1) Michaelis-Menten constant for Gamma-glutamyltranspeptidase in rat kidney.
Series [2] has as its system N[C@@H](CCS(=O)(=O)CCC(=O)NCC(=O)O)C(=O)O. The series is described as §1.

Glutathione hydrolase 1 proenzyme (Rattus norvegicus), P07314, sequence (P07314 whole entry): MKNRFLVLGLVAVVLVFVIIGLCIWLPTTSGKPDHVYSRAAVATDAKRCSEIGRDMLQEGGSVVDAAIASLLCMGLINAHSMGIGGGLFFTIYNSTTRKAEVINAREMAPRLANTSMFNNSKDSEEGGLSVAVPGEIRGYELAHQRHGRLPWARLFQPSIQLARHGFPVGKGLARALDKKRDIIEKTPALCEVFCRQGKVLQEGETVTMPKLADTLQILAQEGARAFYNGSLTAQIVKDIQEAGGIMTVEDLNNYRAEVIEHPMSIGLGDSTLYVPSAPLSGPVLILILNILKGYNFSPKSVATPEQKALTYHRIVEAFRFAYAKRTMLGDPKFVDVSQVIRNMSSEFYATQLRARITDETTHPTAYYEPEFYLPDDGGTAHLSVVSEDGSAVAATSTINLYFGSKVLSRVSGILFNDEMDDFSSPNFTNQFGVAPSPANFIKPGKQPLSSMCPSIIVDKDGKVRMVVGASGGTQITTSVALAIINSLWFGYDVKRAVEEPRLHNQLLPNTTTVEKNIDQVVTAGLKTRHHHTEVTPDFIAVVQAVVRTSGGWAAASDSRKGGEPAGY

A word on the Km: it is the concentration of substrate that gives half-maximal velocity. On to “Glutathione hydrolase 1 proenzyme (Rattus norvegicus), P07314”, for which the values for the Km in series [1] and in series [2] were 500 µM and 590 µM, respectively.
